Data from PMC8304084, “A Concerted Action of UBA5 C-Terminal Unstructured Regions Is Important for Transfer of Activated UFM1 to UFC1” (International Journal of Molecular Sciences, 2021).

How the values were obtained:
[1] = molecular target: T1, GABARAP (Homo sapiens, UniProt O95166); assay: ITC, UBA5 peptides vs GABARAP; format: binding; conditions: 25 °C
T1 construct: modified ubiquitin tag (Ub19) with TEV site (N, cleaved yes); made in house; host or cells: E. coli T7 Express
Text: To understand how the UBA5 C-terminus participates in the ufmylation cascade, we performed isothermal titration calorimetry (ITC) experiments, in which we titrated UBA5 C-terminal peptides (see Table 1) to the UBA5 AD, UFC1, UFM1 and representative LC3/GABARAP proteins (Figure 2A, Supplementary Figure S2A–D and Table 2).
All proteins and peptides were expressed in E.Coli T7 Express (New England Biolabs GmbH, Frankfurt, Germany) cells in LB or M9 (to obtain ^15N- and ^13C,^15N-labeled polypeptides) media according to the protocol described in [33, 36]. For protein purification, bacterial cell pellets were resuspended in lysis buffer (50 mM Tris-HCl pH = 7.5, 100 mM NaCl, 5% glycerol, 5 mM PIC (protease inhibitor cocktail)) and lysed via sonication (TT13 Sonotrode, 40% amplitude, for 6 × 1 min with a 0.5/0.5-s pulse). Lysates were centrifuged for 45 min at 17,000× g at 4 °C. Supernatants were loaded onto a His Trap Fast Flow 5 mL column (GE Healthcare, München, Germany) equilibrated in loading buffer (50 mM Tris-HCl pH = 8.0, 250 mM NaCl, 1% glycerol, 20 mM imidazole). The column was washed with loading buffer for 5–10 CV and protein was eluted with elution buffer (50 mM Tris-HCl pH = 8, 250 mM NaCl, 1% glycerol, 400 mM imidazole). Simultaneous TEV cleavage (1 mg TEV protease was added to 100 mg peptides/proteins) and buffer exchange to loading buffer via dialysis was performed over night at 4 °C. After reverse IMAC, proteins were concentrated with conical concentrators (Millipore Merck, Darmstadt, Germany) and loaded on a Superdex 10/60 75 or 200 column (GE Healthcare, München, Germany) for further purification and equilibration with ITC/NMR buffer (25 mM HEPES pH = 7.5, 100 mM NaCl). […] The protein and peptide concentrations were calculated from the UV absorption at 280 nm by Nanodrop spectrophotometer (Thermo Scientific, Langenselbold, Germany).
All ITC experiments were performed at 25 °C using a VP-ITC microcalorimeter (Malvern Panalytical Ltd., Malvern, UK). […] The ITC data were analyzed based on a “one-site” binding model with MicroCal ITC software implemented in Origin 7.0.

[2] = molecular target: T2, UFC1 (Homo sapiens, UniProt Q9Y3C8); assay: In vitro thioester formation (ufmylation) assay, UFC1~UFM1 conjugate; format: biochemical; conditions: 1 mM ATP, 22 °C; peptides added to UBA5 AD^1–330 where applicable
T2 construct: Full length UFC1, residues 1–167; modified ubiquitin tag (Ub19) with TEV site (N, cleaved yes); made in house; host or cells: E. coli T7 Express
T2 sequence (Q9Y3C8 1-167): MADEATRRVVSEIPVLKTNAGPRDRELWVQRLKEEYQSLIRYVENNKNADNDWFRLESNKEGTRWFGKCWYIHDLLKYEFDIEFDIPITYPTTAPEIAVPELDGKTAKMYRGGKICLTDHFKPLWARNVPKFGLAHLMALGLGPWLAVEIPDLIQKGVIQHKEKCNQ
Protocol: First, we analyzed the effect of the UBA5 C-terminus on UFM1 transfer to UFC1 with an in vitro thioester formation assay (Figure 1B–E).
Ufmylation reaction assays were adopted from work of Xie. Briefly, 70 µM UFM1, 20 µM UFC1 and 20 µM of different UBA5 constructs were mixed in reaction buffer (50 mM HEPES pH = 7.5, 100 mM NaCl, 5 mM MgCl2). After starting the reaction with addition of 1 mM ATP, the reaction mix was incubated at 22 °C for the desired time. To quench the reaction and prepare electrophoretic samples, 1 µL of the reaction mix was added to 99 µL 1x non-reducing SDS loading buffer and frozen in liquid nitrogen. Sample content was visualized by sodium dodecyl sulfate polyacrylamide gel electrophoresis (SDS-PAGE). The transfer to polyvinylidene difluoride (PVDF) membrane was performed via a Trans-Blot® Turbo™ Transfer System (Bio-Rad, München, Germany). After transfer the membrane was blocked with TBST (Tris-buffered saline with Tween20 buffer, 20 mM Tris, 150 mM NaCl and 0.1% TWEEN 20) containing 5% w/v nonfat dry milk for 1 h, followed by α-UFC1 antibody incubation over night at 4 °C (ab189251 abcam, 1:10,000 in TBST containing 5% w/v nonfat dry milk). After washing with TBST the membrane was incubated with secondary antibody (anti-rabbit-HRP) for 1 h at RT and again washed with TBST. Detection was performed by addition of ECL solution. For quantification of UFC1 ufmylation coloc2 software implemented in ImageJ was used.

[3] = molecular target: T2, UFC1; assay: NMR titration with UFC1; format: binding; conditions: [15N,1H] TROSY-HSQC, 25 °C
Protocol: To understand the role of the UBA5 C-terminal region in coordination of the binding events reported above on the molecular level, we performed NMR titration experiments. […] It seems, that these UBA5 residues form additional interactions with UFC1.
All NMR experiments were performed at a sample temperature of 25 °C on Bruker 600, 700, 800, 900, and 950 MHz spectrometers equipped with cryogenic probes, and a 500 MHz spectrometer equipped with a room-temperature triple-resonance probe. All NMR spectra were analyzed with the Sparky 3.114 software (University of California, San Francisco, USA). For NMR titration experiments, the non-labeled UBA5 peptides were titrated to 100 µM ^13C,^15N-labeled UFC1 to a final molar ratio of 1:8 (UFC1:UBA5 peptide). Conversely, 100 µM ^13C,^15N-labeled UBA5 peptides were titrated with non-labeled UFC1 to a final molar ratio 1:4 (UBA5 peptide:UFC1). 2D ^1H-^15N correlation spectra ([^15N,^1H] TROSY-HSQC) were recorded at each titration point. The same types of spectra were recorded to estimate binding of ^13C,^15N-labeled UFC1 (75 µM) to non-labeled UBA5, UBA5~UFM1 and UFM1 at 1:2 molar ratios. CSP values, Δδ, were calculated for each individual amide group using the formula Δδ = [(ΔδN/5)^2 + Δδ^2HN)]^1/2.

T1 sequence (O95166 3-116): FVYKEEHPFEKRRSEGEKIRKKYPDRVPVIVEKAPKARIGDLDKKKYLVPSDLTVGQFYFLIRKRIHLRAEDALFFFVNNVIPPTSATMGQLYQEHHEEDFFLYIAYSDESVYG

For “R1-R2-R3^325–404: UBA5 C-terminal part, residues 325–404 (recombinant, E. coli)”, the ΔG [1] was -8.15 kcal/mol, the ΔS [1] was 24.2 cal mol^−1 K^−1 and the “−T*ΔS” value [1] was -7.22 kcal/mol. The “effect on UFC1~UFM1 conjugation (in words)” value [2] was “gets rescued” and the “interaction with UFC1 (in words)” value [3] was “mediated mostly by the UBA5 residues 386–404”.
